# Assay results reported in publication PMC8384837, “Expanding the binding specificity for RNA recognition by a PUF domain”.
# Tests used:
# [1] = molecular target: PUF variant QFR/VFQ (human, UniProt Q14671 828-1176, S863Q;R864F;Q867R;N899V;Y900F); test: EMSA; 10 mM HEPES pH 7.3, 50 mM NaCl, 2 mM DTT, 0.05% Tween 20, 0.1 mg/ml BSA, 0.1 mg/ml yeast tRNA; ~10 nM RNA, 0-1 uM protein, 1 h on ice; 1.2% agarose gel, 1x TBE, room temperature; settings: protein: recombinant; tags: N-terminal GST (pGEX-6P-1) removed by HRV3C protease; label: 5' 32P
# Chain of PUF variant QFR/VFQ (Q14671 828-1176 S863Q/R864F/Q867R/N899V/Y900F): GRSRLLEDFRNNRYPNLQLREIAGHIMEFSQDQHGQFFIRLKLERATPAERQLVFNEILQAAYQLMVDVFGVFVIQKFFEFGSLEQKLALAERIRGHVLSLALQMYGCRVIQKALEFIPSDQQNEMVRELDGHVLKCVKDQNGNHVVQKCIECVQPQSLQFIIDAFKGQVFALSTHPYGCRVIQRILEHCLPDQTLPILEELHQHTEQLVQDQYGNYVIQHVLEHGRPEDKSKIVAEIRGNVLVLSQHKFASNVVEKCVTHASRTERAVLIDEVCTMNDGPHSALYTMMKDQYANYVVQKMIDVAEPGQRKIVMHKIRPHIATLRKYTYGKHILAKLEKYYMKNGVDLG
# [2] = molecular target: PUF design 2 (human, UniProt Q14671 828-1176, C935T;R936H;Q939E;N971T;H972F;Q975R); test: as above; settings: protein: recombinant; tags: N-terminal GST (pGEX-6P-1) removed by HRV3C protease; label: 5' 32P
# Chain of PUF design 2 (Q14671 828-1176 C935T/R936H/Q939E/N971T/H972F/Q975R): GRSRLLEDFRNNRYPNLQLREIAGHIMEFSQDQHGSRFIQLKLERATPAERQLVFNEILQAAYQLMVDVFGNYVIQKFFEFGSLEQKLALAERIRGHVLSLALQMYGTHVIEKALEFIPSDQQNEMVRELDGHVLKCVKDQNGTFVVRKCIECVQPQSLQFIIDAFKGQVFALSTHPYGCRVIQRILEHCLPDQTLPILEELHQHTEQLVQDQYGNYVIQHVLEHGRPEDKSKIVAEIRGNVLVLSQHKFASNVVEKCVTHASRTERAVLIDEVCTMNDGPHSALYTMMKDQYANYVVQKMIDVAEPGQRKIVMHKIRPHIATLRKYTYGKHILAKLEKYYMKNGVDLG
binder,measurement,setting,value
GGUAAGUGUAAAACGUCUGCAU (ssRNA) [QFR/VFQ target RNA],Kd,[1],~110 nM
GGUAAGUGUACGUAGUCUGCAU (ssRNA) [design 2 target RNA],Kd,[2],~45 nM
GGUAAGUGUAAAUAGUCUGCAU (ssRNA) [wild-type NRE RNA],binding result,[1],no binding
same,binding result,[2],no binding
